Measurements from patent US20150299281A1 (ZEALAND PHARMA A S, published 2015).
Numbered stars: 1 amine (or outer) side, 2 acyl side, 3 side chain; on linkers, the order of the positions; unused ones are H or OH. Square brackets hold non-standard residues; d marks the D form. Side chains are listed from the residue outwards. * marks the point of attachment. γGlu = O=C(O)[C@H](CCC(=O)[*:2])N[*:1]; Palmitoyl = CCCCCCCCCCCCCCCC(=O)*; Aib = CC(C)(N)C(=O)O

T1: human GIP receptor (human, UniProt P48546 22-466)
T1 sequence (looked up): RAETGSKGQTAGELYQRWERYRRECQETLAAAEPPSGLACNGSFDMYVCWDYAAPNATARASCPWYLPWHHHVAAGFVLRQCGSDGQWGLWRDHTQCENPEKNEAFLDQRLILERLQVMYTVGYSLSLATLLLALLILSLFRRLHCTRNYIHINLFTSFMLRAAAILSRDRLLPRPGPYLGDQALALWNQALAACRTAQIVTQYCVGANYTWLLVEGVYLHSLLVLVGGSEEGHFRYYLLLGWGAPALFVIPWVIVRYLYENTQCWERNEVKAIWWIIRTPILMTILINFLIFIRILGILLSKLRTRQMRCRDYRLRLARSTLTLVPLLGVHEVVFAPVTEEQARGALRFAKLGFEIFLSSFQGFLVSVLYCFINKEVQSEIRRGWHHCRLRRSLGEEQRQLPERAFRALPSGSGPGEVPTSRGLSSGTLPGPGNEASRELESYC

B1: Compound 32 (peptide)
peptide: H-Y[Aib]EGTFTSDYSI[Aib]LDKK([γGlu-Palmitoyl])AQRAFVEWLLAQGPSSGAPPPS-NH2
SMILES: CCCCCCCCCCCCCCCC(=O)N[C@@H](CCC(=O)NCCCC[C@H](NC(=O)[C@H](CCCCN)NC(=O)[C@H](CC(=O)O)NC(=O)[C@H](CC(C)C)NC(=O)C(C)(C)NC(=O)[C@@H](NC(=O)[C@H](CO)NC(=O)[C@H](Cc1ccc(O)cc1)NC(=O)[C@H](CC(=O)O)NC(=O)[C@H](CO)NC(=O)[C@@H](NC(=O)[C@H](Cc1ccccc1)NC(=O)[C@@H](NC(=O)CNC(=O)[C@H](CCC(=O)O)NC(=O)C(C)(C)NC(=O)[C@@H](N)Cc1ccc(O)cc1)[C@@H](C)O)[C@@H](C)O)[C@@H](C)CC)C(=O)N[C@@H](C)C(=O)N[C@@H](CCC(N)=O)C(=O)N[C@@H](CCCNC(=N)N)C(=O)N[C@@H](C)C(=O)N[C@@H](Cc1ccccc1)C(=O)N[C@H](C(=O)N[C@@H](CCC(=O)O)C(=O)N[C@@H](Cc1c[nH]c2ccccc12)C(=O)N[C@@H](CC(C)C)C(=O)N[C@@H](CC(C)C)C(=O)N[C@@H](C)C(=O)N[C@@H](CCC(N)=O)C(=O)NCC(=O)N1CCC[C@H]1C(=O)N[C@@H](CO)C(=O)N[C@@H](CO)C(=O)NCC(=O)N[C@@H](C)C(=O)N1CCC[C@H]1C(=O)N1CCC[C@H]1C(=O)N1CCC[C@H]1C(=O)N[C@@H](CO)C(N)=O)C(C)C)C(=O)O
B2: Compound 39 (peptide)
peptide: H-Y[Aib]EGTFTSDYSIYLEKKAQKEFVEWLLSA-NH2
SMILES: CC[C@H](C)[C@H](NC(=O)[C@H](CO)NC(=O)[C@H](Cc1ccc(O)cc1)NC(=O)[C@H](CC(=O)O)NC(=O)[C@H](CO)NC(=O)[C@@H](NC(=O)[C@H](Cc1ccccc1)NC(=O)[C@@H](NC(=O)CNC(=O)[C@H](CCC(=O)O)NC(=O)C(C)(C)NC(=O)[C@@H](N)Cc1ccc(O)cc1)[C@@H](C)O)[C@@H](C)O)C(=O)N[C@@H](Cc1ccc(O)cc1)C(=O)N[C@@H](CC(C)C)C(=O)N[C@@H](CCC(=O)O)C(=O)N[C@@H](CCCCN)C(=O)N[C@@H](CCCCN)C(=O)N[C@@H](C)C(=O)N[C@@H](CCC(N)=O)C(=O)N[C@@H](CCCCN)C(=O)N[C@@H](CCC(=O)O)C(=O)N[C@@H](Cc1ccccc1)C(=O)N[C@H](C(=O)N[C@@H](CCC(=O)O)C(=O)N[C@@H](Cc1c[nH]c2ccccc12)C(=O)N[C@@H](CC(C)C)C(=O)N[C@@H](CC(C)C)C(=O)N[C@@H](CO)C(=O)N[C@@H](C)C(N)=O)C(C)C
B3: Compound 37 (peptide)
peptide: H-Y[Aib]EGTFTSDYSIYLEKKAAKDFVEWLLSA-NH2
SMILES: CC[C@H](C)[C@H](NC(=O)[C@H](CO)NC(=O)[C@H](Cc1ccc(O)cc1)NC(=O)[C@H](CC(=O)O)NC(=O)[C@H](CO)NC(=O)[C@@H](NC(=O)[C@H](Cc1ccccc1)NC(=O)[C@@H](NC(=O)CNC(=O)[C@H](CCC(=O)O)NC(=O)C(C)(C)NC(=O)[C@@H](N)Cc1ccc(O)cc1)[C@@H](C)O)[C@@H](C)O)C(=O)N[C@@H](Cc1ccc(O)cc1)C(=O)N[C@@H](CC(C)C)C(=O)N[C@@H](CCC(=O)O)C(=O)N[C@@H](CCCCN)C(=O)N[C@@H](CCCCN)C(=O)N[C@@H](C)C(=O)N[C@@H](C)C(=O)N[C@@H](CCCCN)C(=O)N[C@@H](CC(=O)O)C(=O)N[C@@H](Cc1ccccc1)C(=O)N[C@H](C(=O)N[C@@H](CCC(=O)O)C(=O)N[C@@H](Cc1c[nH]c2ccccc12)C(=O)N[C@@H](CC(C)C)C(=O)N[C@@H](CC(C)C)C(=O)N[C@@H](CO)C(=O)N[C@@H](C)C(N)=O)C(C)C
B4: Compound 4 (peptide)
peptide: H-Y[Aib]EGTFISDYSIYLEKIAAKEFVNWLLAQK-NH2
B5: Compound 35 (peptide)
peptide: H-Y[Aib]EGTFTSDYSIYLDKK([γGlu-Palmitoyl])AQRAFVNWLLA[Aib]KPSSGAPPPS-NH2
SMILES: CCCCCCCCCCCCCCCC(=O)N[C@@H](CCC(=O)NCCCC[C@H](NC(=O)[C@H](CCCCN)NC(=O)[C@H](CC(=O)O)NC(=O)[C@H](CC(C)C)NC(=O)[C@H](Cc1ccc(O)cc1)NC(=O)[C@@H](NC(=O)[C@H](CO)NC(=O)[C@H](Cc1ccc(O)cc1)NC(=O)[C@H](CC(=O)O)NC(=O)[C@H](CO)NC(=O)[C@@H](NC(=O)[C@H](Cc1ccccc1)NC(=O)[C@@H](NC(=O)CNC(=O)[C@H](CCC(=O)O)NC(=O)C(C)(C)NC(=O)[C@@H](N)Cc1ccc(O)cc1)[C@@H](C)O)[C@@H](C)O)[C@@H](C)CC)C(=O)N[C@@H](C)C(=O)N[C@@H](CCC(N)=O)C(=O)N[C@@H](CCCNC(=N)N)C(=O)N[C@@H](C)C(=O)N[C@@H](Cc1ccccc1)C(=O)N[C@H](C(=O)N[C@@H](CC(N)=O)C(=O)N[C@@H](Cc1c[nH]c2ccccc12)C(=O)N[C@@H](CC(C)C)C(=O)N[C@@H](CC(C)C)C(=O)N[C@@H](C)C(=O)NC(C)(C)C(=O)N[C@@H](CCCCN)C(=O)N1CCC[C@H]1C(=O)N[C@@H](CO)C(=O)N[C@@H](CO)C(=O)NCC(=O)N[C@@H](C)C(=O)N1CCC[C@H]1C(=O)N1CCC[C@H]1C(=O)N1CCC[C@H]1C(=O)N[C@@H](CO)C(N)=O)C(C)C)C(=O)O
B6: Compound 33 (peptide)
peptide: H-Y[Aib]EGTFTSDYSIYLDKK([γGlu-Palmitoyl])AQRAFVEWLLAQGPSSGAPPPS-NH2
SMILES: CCCCCCCCCCCCCCCC(=O)N[C@@H](CCC(=O)NCCCC[C@H](NC(=O)[C@H](CCCCN)NC(=O)[C@H](CC(=O)O)NC(=O)[C@H](CC(C)C)NC(=O)[C@H](Cc1ccc(O)cc1)NC(=O)[C@@H](NC(=O)[C@H](CO)NC(=O)[C@H](Cc1ccc(O)cc1)NC(=O)[C@H](CC(=O)O)NC(=O)[C@H](CO)NC(=O)[C@@H](NC(=O)[C@H](Cc1ccccc1)NC(=O)[C@@H](NC(=O)CNC(=O)[C@H](CCC(=O)O)NC(=O)C(C)(C)NC(=O)[C@@H](N)Cc1ccc(O)cc1)[C@@H](C)O)[C@@H](C)O)[C@@H](C)CC)C(=O)N[C@@H](C)C(=O)N[C@@H](CCC(N)=O)C(=O)N[C@@H](CCCNC(=N)N)C(=O)N[C@@H](C)C(=O)N[C@@H](Cc1ccccc1)C(=O)N[C@H](C(=O)N[C@@H](CCC(=O)O)C(=O)N[C@@H](Cc1c[nH]c2ccccc12)C(=O)N[C@@H](CC(C)C)C(=O)N[C@@H](CC(C)C)C(=O)N[C@@H](C)C(=O)N[C@@H](CCC(N)=O)C(=O)NCC(=O)N1CCC[C@H]1C(=O)N[C@@H](CO)C(=O)N[C@@H](CO)C(=O)NCC(=O)N[C@@H](C)C(=O)N1CCC[C@H]1C(=O)N1CCC[C@H]1C(=O)N1CCC[C@H]1C(=O)N[C@@H](CO)C(N)=O)C(C)C)C(=O)O
B7: Compound 34 (peptide)
peptide: H-Y[Aib]EGTFTSDYSIYLDEK([γGlu-Palmitoyl])AAKEFIEWLESA-NH2
SMILES: CCCCCCCCCCCCCCCC(=O)N[C@@H](CCC(=O)NCCCC[C@H](NC(=O)[C@H](CCC(=O)O)NC(=O)[C@H](CC(=O)O)NC(=O)[C@H](CC(C)C)NC(=O)[C@H](Cc1ccc(O)cc1)NC(=O)[C@@H](NC(=O)[C@H](CO)NC(=O)[C@H](Cc1ccc(O)cc1)NC(=O)[C@H](CC(=O)O)NC(=O)[C@H](CO)NC(=O)[C@@H](NC(=O)[C@H](Cc1ccccc1)NC(=O)[C@@H](NC(=O)CNC(=O)[C@H](CCC(=O)O)NC(=O)C(C)(C)NC(=O)[C@@H](N)Cc1ccc(O)cc1)[C@@H](C)O)[C@@H](C)O)[C@@H](C)CC)C(=O)N[C@@H](C)C(=O)N[C@@H](C)C(=O)N[C@@H](CCCCN)C(=O)N[C@@H](CCC(=O)O)C(=O)N[C@@H](Cc1ccccc1)C(=O)N[C@H](C(=O)N[C@@H](CCC(=O)O)C(=O)N[C@@H](Cc1c[nH]c2ccccc12)C(=O)N[C@@H](CC(C)C)C(=O)N[C@@H](CCC(=O)O)C(=O)N[C@@H](CO)C(=O)N[C@@H](C)C(N)=O)[C@@H](C)CC)C(=O)O
B8: Compound 38 (peptide)
peptide: H-Y[Aib]EGTFTSDYSIYLEKKAAHDFVEWLLSA-NH2
SMILES: CC[C@H](C)[C@H](NC(=O)[C@H](CO)NC(=O)[C@H](Cc1ccc(O)cc1)NC(=O)[C@H](CC(=O)O)NC(=O)[C@H](CO)NC(=O)[C@@H](NC(=O)[C@H](Cc1ccccc1)NC(=O)[C@@H](NC(=O)CNC(=O)[C@H](CCC(=O)O)NC(=O)C(C)(C)NC(=O)[C@@H](N)Cc1ccc(O)cc1)[C@@H](C)O)[C@@H](C)O)C(=O)N[C@@H](Cc1ccc(O)cc1)C(=O)N[C@@H](CC(C)C)C(=O)N[C@@H](CCC(=O)O)C(=O)N[C@@H](CCCCN)C(=O)N[C@@H](CCCCN)C(=O)N[C@@H](C)C(=O)N[C@@H](C)C(=O)N[C@@H](Cc1c[nH]cn1)C(=O)N[C@@H](CC(=O)O)C(=O)N[C@@H](Cc1ccccc1)C(=O)N[C@H](C(=O)N[C@@H](CCC(=O)O)C(=O)N[C@@H](Cc1c[nH]c2ccccc12)C(=O)N[C@@H](CC(C)C)C(=O)N[C@@H](CC(C)C)C(=O)N[C@@H](CO)C(=O)N[C@@H](C)C(N)=O)C(C)C

Legend:
human GIP receptor = biological target: T1, human GIP receptor; assay: cell-based or functional assay
human GLP-1 receptor = human GLP-1 receptor (human, UniProt P43220 24-463); assay: cell-based or functional assay

Binder | EC50, cAMP induction in HEK293 cells expressing human GIP R (human GIP receptor) [nM] | EC50, cAMP induction in HEK293 cells expressing human GLP-1 R (human GLP-1 receptor) [nM]
B1 | 0.012 | 0.018
B2 | 0.0083 | 0.011
B3 | 0.0097 | 0.018
B4 | 0.022 | 2.6
B5 | 0.028 | 0.022
B6 | 0.035 | 0.031
B7 | 0.045 | 0.031
B8 | 0.007 | 0.018
